The Immune Epitope Database (IEDB)

Columns and labels:
[1] = biological target: HLA-B*51:01; assay: IEDB peptide-MHC binding, purified MHC/competitive/radioactivity; filed as Kd, often an IC50 or EC50 that approximates it; ≥ and ≤ were set here for values at or beyond the usual limits of such assays
[2] = biological target: HLA-B*53:01; assay: as above
[3] = biological target: HLA-B*35:01; assay: as above
[4] = biological target: HLA-B*07:02; assay: as above
[5] = biological target: HLA-B*54:01; assay: as above
[6] = biological target: HLA-A*68:02; assay: as above
[7] = biological target: HLA-A*02:01; assay: as above
[8] = biological target: HLA-A*02:02; assay: as above
[9] = biological target: HLA-A*02:06; assay: as above
[10] = biological target: HLA-A*11:01; assay: as above; settings: source organism: Vaccinia virus Copenhagen
[11] = biological target: HLA-A*33:01; assay: as above; settings: source organism: Vaccinia virus Copenhagen
[12] = biological target: HLA-A*68:01; assay: as above; settings: source organism: Vaccinia virus Copenhagen
[13] = biological target: HLA-A*02:03; assay: as above
[14] = biological target: HLA-A*31:01; assay: as above; settings: source organism: Vaccinia virus Copenhagen
[15] = biological target: HLA-A*03:01; assay: as above; settings: source organism: Vaccinia virus Copenhagen
[16] = biological target: HLA-A*02:01; assay: IEDB peptide-MHC binding, purified MHC/competitive/fluorescence; filed as Kd, often an IC50 or EC50 that approximates it; ≥ and ≤ were set here for values at or beyond the usual limits of such assays
[17] = biological target: HLA-B*08:01; assay: IEDB peptide-MHC binding, purified MHC/competitive/radioactivity; filed as Kd, often an IC50 or EC50 that approximates it; ≥ and ≤ were set here for values at or beyond the usual limits of such assays
[18] = biological target: HLA-B*51:01; assay: IEDB peptide-MHC binding, purified MHC/competitive/fluorescence; filed as Kd, often an IC50 or EC50 that approximates it; ≥ and ≤ were set here for values at or beyond the usual limits of such assays; settings: source organism: Helicobacter pylori 26695
[19] = biological target: HLA-B*18:01; assay: as above; settings: source organism: Helicobacter pylori 26695
[20] = biological target: HLA-B*27:03; assay: as above; settings: source organism: Helicobacter pylori 26695
[21] = biological target: HLA-B*57:01; assay: as above; settings: source organism: Helicobacter pylori 26695
[22] = biological target: HLA-B*39:01; assay: as above; settings: source organism: Helicobacter pylori 26695
[23] = biological target: HLA-A*26:01; assay: as above; settings: source organism: Helicobacter pylori 26695
[24] = biological target: HLA-B*46:01; assay: as above; settings: source organism: Helicobacter pylori 26695
[25] = biological target: HLA-B*15:01; assay: as above; settings: source organism: Helicobacter pylori 26695
[26] = biological target: HLA-A*03:01; assay: as above; settings: source organism: Helicobacter pylori 26695
[27] = biological target: HLA-B*15:01; assay: IEDB peptide-MHC binding, purified MHC/competitive/radioactivity; filed as Kd, often an IC50 or EC50 that approximates it; ≥ and ≤ were set here for values at or beyond the usual limits of such assays; settings: source organism: Vaccinia virus WR
[28] = source organism: SARS coronavirus Tor2
[29] = source organism: Mammarenavirus brazilense
[30] = source organism: Dengue virus 4 Philippines/H241/1956
[31] = source organism: Lassa virus Josiah
[32] = source organism: Vaccinia virus Copenhagen
[33] = source organism: Vaccinia virus WR
[34] = source organism: Mammarenavirus lassaense
[35] = source organism: Dengue virus 2 Jamaica/1409/1983

Sequence APATVCGPKL has a Kd [1, 28] of 7070 nM, a Kd [2, 28] of at least 50000 nM and a Kd [3, 28] of at least 69900 nM. It also gave a Kd [4, 28] of 30.4 nM and a Kd [5, 28] of at least 69900 nM.
In the case of APFMSDLQF, the Kd [1, 29] is reported as at least 39300 nM, the Kd [2, 29] is reported as 31.9 nM and the Kd [3, 29] is reported as 7.55 nM. For the same sequence, the Kd [4, 29] was 148 nM and the Kd [5, 29] was at least 36300 nM.
DLNGAQIKL was tested, and the Kd ([6]; source organism: Homo sapiens) was 2980 nM, the Kd ([7]; source organism: Homo sapiens) was at least 50600 nM and the Kd ([8]; source organism: Homo sapiens) was 2620 nM.
DLNLGNLN showed a Kd ([7]; source organism: Hepatitis B virus subtype ayw) of at least 5000 nM.
In the case of EIASLPTYL, the Kd [6, 30] is reported as 7.91 nM.
ELEKTRRKL gave a Kd ([6]; source organism: Homo sapiens) of 6990 nM and a Kd ([9]; source organism: Homo sapiens) of at least 45200 nM.
Sequence ELNDRFANYI has a Kd ([6]; source organism: Homo sapiens) of 11.6 nM and a Kd ([8]; source organism: Homo sapiens) of 37.6 nM.
In the case of FLLLCGRSCT, the Kd [7, 31] is reported as at least 25000 nM.
Sequence FLTSVINRV has a Kd [1, 32] of at least 37200 nM, a Kd [2, 32] of at least 61000 nM and a Kd [10] of at least 77900 nM. For the same sequence, the Kd [3, 32] was 19000 nM, the Kd [11] was at least 77700 nM and the Kd [4, 32] was at least 77500 nM. For the same sequence, the Kd [5, 32] was 904 nM, the Kd [12] was 9600 nM and the Kd [13, 32] was 5.63 nM. For the same sequence, the Kd [8, 32] was 1.66 nM, the Kd [14] was at least 77900 nM and the Kd [15] was at least 78000 nM. The Kd ([16]; source organism: Variola virus) was 3.5 nM.
With FPANINDKQI the Kd [1, 33] was 145 nM, the Kd [2, 33] was 8.77 nM and the Kd [3, 33] was 384 nM. It also gave a Kd [4, 33] of 468 nM and a Kd [5, 33] of 13.8 nM.
In the case of FPLCANGQVF, the Kd [1, 28] is reported as 10.6 nM, the Kd [2, 28] is reported as 1.94 nM and the Kd [3, 28] is reported as 1.84 nM. For the same sequence, the Kd [4, 28] was 87.1 nM and the Kd [5, 28] was 358 nM.
In the case of GIRPRFLSQ, the Kd [17, 32] is reported as 221 nM.
GIVCYNEEV showed a Kd [18] of at least 20000 nM, a Kd [19] of at least 20000 nM and a Kd [20] of at least 20000 nM. The Kd [21] was at least 20000 nM, the Kd ([16]; source organism: Helicobacter pylori 26695) was 38 nM and the Kd [22] was at least 20000 nM. The Kd [23] was at least 20000 nM, the Kd [24] was at least 20000 nM and the Kd [25] was at least 20000 nM. It also gave a Kd [26] of at least 20000 nM.
IISTFHLSI gave a Kd [6, 31] of 652 nM, a Kd [13, 31] of 13.9 nM and a Kd [8, 31] of 236 nM. It also gave a Kd [9, 31] of 264 nM.
For IMAVGLVSLL, the Kd [17, 30] was 863 nM.
IPDELIDVL was tested, and the Kd [1, 33] was 2180 nM, the Kd [2, 33] was 458 nM and the Kd [3, 33] was 256 nM. The Kd [4, 33] was 373 nM and the Kd [5, 33] was 12300 nM.
For IPFNVVTAM, the Kd [1, 34] was 4230 nM, the Kd [2, 34] was 73.9 nM and the Kd [3, 34] was 5.25 nM. It also gave a Kd [4, 34] of 18.5 nM and a Kd [5, 34] of 504 nM.
Work on ITASILLWYA yielded a Kd [6, 35] of 12.4 nM and a Kd [9, 35] of 1.98 nM.
Sequence KPESRPFDLI has a Kd [1, 33] of at least 69600 nM, a Kd [2, 33] of 18600 nM and a Kd [3, 33] of at least 69900 nM. The Kd [4, 33] was 1380 nM and the Kd [5, 33] was 18500 nM.
LLKPRCNPA gave a Kd [17, 33] of 1.16 nM and a Kd [27] of 20.6 nM.
Work on LLSQRTRDI yielded a Kd [7, 31] of 12500 nM.
